From article PMC10365013

Molecular target: avi-tagged SHOC2 (human) (UniProt Q9UQ13)
Assay: SPR

Chain of avi-tagged SHOC2 (human) (Q9UQ13 whole entry): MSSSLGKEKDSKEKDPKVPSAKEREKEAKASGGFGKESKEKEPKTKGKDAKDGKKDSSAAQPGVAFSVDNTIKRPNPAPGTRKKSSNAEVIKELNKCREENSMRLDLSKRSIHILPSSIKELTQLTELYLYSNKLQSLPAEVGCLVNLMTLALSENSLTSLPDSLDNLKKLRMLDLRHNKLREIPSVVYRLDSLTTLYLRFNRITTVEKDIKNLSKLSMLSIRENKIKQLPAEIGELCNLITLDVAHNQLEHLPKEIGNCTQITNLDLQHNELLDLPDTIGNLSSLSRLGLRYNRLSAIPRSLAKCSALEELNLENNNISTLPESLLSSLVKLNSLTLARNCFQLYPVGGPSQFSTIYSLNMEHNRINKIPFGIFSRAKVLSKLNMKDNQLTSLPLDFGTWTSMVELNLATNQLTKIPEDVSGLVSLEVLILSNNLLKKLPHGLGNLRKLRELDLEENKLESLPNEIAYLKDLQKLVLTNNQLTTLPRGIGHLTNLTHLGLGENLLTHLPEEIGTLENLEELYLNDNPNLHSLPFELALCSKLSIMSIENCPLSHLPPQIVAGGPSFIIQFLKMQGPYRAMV

apparent KD of ternary complex formation with m3: 0.7 µM
Substance: KRAS (1–169) (from UniProt P01116 1-169) (domain or fragment)
